Measured values published in US20170066830A1 (MERSANA THERAPEUTICS, published 2017).
Numbering of substitutions follows the chain as printed. Blank lines part the entries; values can stand above or below the binder they belong to.

Experiments:
[1] = target: T1, full-length human HER2 receptor on cells (human, UniProt P04626 23-1255); experiment: flow cytometry competition on JIMT-1 cells: unlabeled XMT 1518 titrated against 30 nM Alexa Fluor 647-labeled XMT 1519
T1 construct: also called HER2 on JIMT-1 cells; HER2 on BT474, MCF7, SKBR3 cells

[2] = target: T1, full-length human HER2 receptor on cells; experiment: cell-based or functional assay
[3] = target: T1, full-length human HER2 receptor on cells; experiment: flow cytometry on JIMT-1 cells, Alexa Fluor 647 goat anti-human IgG detection
Procedure: The cell surface binding of the HER2 antibodies to JIMT-1 cells were evaluated using a Macsquant flow cytometer (Miltenyi Biotec, Bergisch Gladbach, Germany). JIMT-1 cells, grown overnight to approximately 90% confluent cultures in DMEM media (ATCC, Manassas, Va.) with 10% FBS (Gibco®, Life Technologies, Grand Island, N.Y.), were released from the plate surface by treatment with Accutase cell detachment solution (Innovative Cell Technologies, San Diego, Calif.). The detached cells were washed once with ice cold media containing 6% goat serum and resuspended in the same media. 100,000 cells were aliquoted per well of a V-bottom, 96-well plate and incubated with a range of HER2 antibody concentrations (0.05-100 nM) in 150 μl DMEM with 6% goat serum on ice for 3 hours. […] The cells were washed once with ice cold PBS (Gibco®, Life Technologies, Cat.# 10010049) and suspended in 200 μl of ice cold PBS with 1% paraformaldehyde. The amount of fluorescence bound per cell was determined by running 5000 cells for each treatment on the flow cytometer. The median fluorescence value for each treatment was graphed, and the dissociation constant, Kd, was calculated for each antibody with Graphpad Prism software by non-linear regression using the single site, specific binding model.

[4] = target: T1, full-length human HER2 receptor on cells; experiment: flow cytometry competition on JIMT-1 cells: unlabeled XMT 1519 titrated against 30 nM Alexa Fluor 647-labeled XMT 1519
[5] = target: T1, full-length human HER2 receptor on cells; experiment: cell-based or functional assay; remark: listed apart in the source
[6] = target: recombinant human HER2 extracellular domain (amino acids 23-652, Acro Biosystems Cat.# HE2-H5225) (human, UniProt P04626 23-652); experiment: ELISA, HER2 extracellular domain coated on plate, one site specific binding fit
Procedure: (§1) The affinity of the antibodies for recombinant human and cynomolgus monkey HER2 was determined by an ELISA assay. […] The wells were washed 4 times with TTBS (50 mM Tris-HCl, pH 7.4, 150 mM NaCl, and 0.05% Tween 20). The wells were blocked by incubation with 50 μl of TTBS containing 5% bovine serum albumin for 1 hr. […] Unbound test antibodies were removed with TTBS washes (4×). […] Unbound secondary antibody was removed by 4 TTBS washes. The HRP substrate, TMB Bethyl Laboratories#E102) was added to each well and incubated until a yellow color was visible. The reaction was stopped by the addition of 50 μl of 0.2 N sulfuric acid. […] Kd was determined by non-linear regression using the one site, specific binding model.

[7] = target: T2, recombinant cynomolgus monkey HER2 extracellular domain (amino acids 1-652, Sino Biological Cat.# 90295-CO8H) (cynomolgus monkey, UniProt A0A2K5WUT7 1-622); experiment: as above
T2 construct: range 1-652; Bought protein; the stated range 1-652 includes the signal peptide of the construct
Procedure: as §1

- IC50 (read off the curve) [1]: ~3 nM
- AKT phosphorylation in MCF7 cells after 4 h antibody [2]: 103 % of untreated cells
B1: XMT 1518 antibody (antibody, human IgG1, kappa, V domains shown)
VH: QVQLVESGGGVVQPGRSLRLSCAASGFTFSSYGMHWVRQAPGKGLEWVAGIWWDGSNEKYADSVKGRFTISRDNSKNTLYLQMNSLRAEDTAVYYCAKEAPYYAKDYMDVWGKGTTVTVSS
VL: EIVLTQSPGTLSLSPGERATLSCRASQSVSSDYLAWYQQKPGQAPRLLIYGASRRATGIPDRFSGSGSGTDFTLTISRLEPEDFAVYYCQQYVSYWTFGGGTKVEIKR

- EC50 (read off the curve) [3]: ~1 nM
- IC50 (read off the curve) [4]: ~5 nM
- AKT phosphorylation in BT474 cells after 4 h antibody (western) [5]: 21 % of untreated cells
- HER3 phosphorylation (Tyr 1289) in BT474 cells after 4 h antibody (western) [5]: 71 % of untreated cells
B2: XMT 1519 antibody (antibody, human IgG1, kappa, V domains shown)
VH: EVQLVESGGGLVQPGGSLRLSCAASGFTFSSYSMNWVRQAPGKGLEWVSYISSSSSTIYYADSVKGRFTISRDNAKNSLYLQMNSLRAEDTAVYYCARGGHGYFDLWGRGTLVTVSS
VL: not shown

- Kd [6]: 0.05 nM
- Kd [7]: 0.05 nM
B3: Example 16H, XMT 1519-(EG2-MI-(10 kDa PHF-BA-(AF-HPA-Ala))) (antibody, human IgG1, kappa, V domains shown)
VH: B2 VH
VL: not shown
modifications: polymer-drug scaffolds on cysteine thiols possible; positions not given; EG2-MI-(10 kDa PHF-BA-(AF-HPA-Ala)) polymer-drug scaffolds joined to cysteine thiols of the partially reduced antibody; positions not given; DAR about 11.8:1 to about 17.5:1

- EC50 (read off the curve) [3]: ~1 nM
- AKT phosphorylation in BT474 cells after 4 h antibody (western) [5]: 30 % of untreated cells
- HER3 phosphorylation (Tyr 1289) in BT474 cells after 4 h antibody (western) [5]: 76 % of untreated cells
B4: XMT 1520 antibody (antibody, human IgG1, kappa, V domains shown)
VH: B2 VH with S31G, Y32R, S54D, S56R
VL: not shown
